Biological target: T1, EGF receptor on human A431 cancer cells (human, UniProt P00533 25-1210)
T1 construct: whole, on cells; also called epidermal growth factor receptor; ErbB1
Test: competition assay on A431 cells, Mab425 fixed at 6.67 nM as competitor, Peptabody EGF 0.1 to 200 nM

B1: Peptabody EGF (designed binder)
chain: MYSFEDLASHHHHHHGDLGPQMLRELQETNAALQDVRDYLRQLVREITFLKNTVMECDACGMQQTSPPTPPTPSPSTPPTPSPRSNSDSECPLSHDGYCLHDGVCMYIEALDKYACNCVVGYIGERCQYRDLKWWELR
notes: also called p-EGF; P-EGF
binding result: binds
